Data taken from patent US20070184522A1, “Cell death modulation via antagonists of Fasl and Fas activation” (University of Pittsburgh of the Commonwealth System of …, priority 2004, published 2007).
Entries after “also recorded” stand apart in the source; their conditions may differ.

Tests used:
[1] = tested on: Fas self-assembly in Hepa 1-6 cells; test: FRET assay of CFP-Fas/YFP-Fas in transfected Hepa 1-6 cells; type: cell-based; conditions: Hepa 1-6 cells, CFP-Fas and YFP-Fas, FasL with AlphaMet
Sequence of Fas self-assembly in Hepa 1-6 cells (P25445 26-190 limits assumed): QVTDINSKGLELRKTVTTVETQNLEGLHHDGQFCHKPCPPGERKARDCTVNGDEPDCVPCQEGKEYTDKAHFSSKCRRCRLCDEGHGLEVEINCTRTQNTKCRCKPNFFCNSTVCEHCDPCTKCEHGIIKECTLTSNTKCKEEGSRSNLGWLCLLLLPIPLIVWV
Procedure: FIG. 3a presents data collected from Jurkat cells (1×10^6) treated with 2 μg/ml of Fas Ligand with or without AlphaMet for 30 minutes on ice. Cells were washed with PBS twice and then incubated with 2 mM of DTSSP in PBS for 30 minutes. The crosslinking process was stopped by 20 mM of Tris (pH 7.5) for another 30 minutes. Cells were spun down and washed with PBS twice and lyzed in RIPA buffer. Cell lysates were subjected to SDS-PAGE under non-reducing or reducing conditions (FIG. 3b) and Western blot analysis using the mouse monoclonal antibody against human Fas. FIG. 3c depicts the quantification of the data in FIG. 3a by densitometry. The data are the mean and SE from three different independent crosslinking and Western blot experiments. […] Frame A: Acceptor CFP-Fas image; Frame B: Acceptor pre-bleach CFP-Fas image; Frame C: Acceptor post-bleach image. Frame D: Donor YFP-Fas image; Frame E: Donor pre-bleach image; Frame F: Donor pre-bleach image. […] Cells were fixed and analyzed by fluorescence microscopy. […]
FRET assay. […] Fret efficiency (E) was calculated as FRETeff=(Dpost−Dpre)/Dpost (Dpost and Dpre are the mean emission intensity […] YFP bleaching).
Fluorescence protein tagged Fas molecules and Hepa 1-6 cells were used for these experiments. […] In these experiments the percent of Fas capping was also determined.

[2] = target: endogenous Fas of Jurkat cells (human) (UniProt P25445); test: cell-based or functional assay
Sequence of endogenous Fas of Jurkat cells (human) (P25445 26-335): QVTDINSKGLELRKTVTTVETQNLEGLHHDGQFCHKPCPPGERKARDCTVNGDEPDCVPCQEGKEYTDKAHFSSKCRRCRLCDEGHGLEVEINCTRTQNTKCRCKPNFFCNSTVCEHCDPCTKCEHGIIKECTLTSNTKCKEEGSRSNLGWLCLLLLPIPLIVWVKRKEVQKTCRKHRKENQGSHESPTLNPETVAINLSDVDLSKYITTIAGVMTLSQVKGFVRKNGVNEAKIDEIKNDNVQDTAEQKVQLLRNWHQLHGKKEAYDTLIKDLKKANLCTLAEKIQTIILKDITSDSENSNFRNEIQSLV

B1: alpha subunit of Met (AlphaMet), amino acid residues 1 to 306, His-tagged (receptor, mouse)
chain: MKAPTVLAPGILVLLLSLVQRSHGECKEALVKSEMNVNMKYQLPNFTAETPIQNVVLHGHHIYLGATNYIYVLNDKDLQKVSEFKTGPVLEHPDCLPCRDCSSKANSSGGVWKDNINMALLVDTYYDDQLISCGSVNRGTCQRHVLPPDNSADIQSEVHCMFSPEEESGQCPDCVVSALGAKVLLSEKDRFINFFVGNTINSSYPPGYSLHSISVRRLKETQDGFKFLTDQSYIDVLPEFLDSYPIKYIHAFESNHFIYFLTVQKETLDAQTFHTRIIRFCSVDSGLHSYMEMPLECILTEKRRKRHHHHHH
FasL-induced FRET [1]: no significant FRET could be detected; also recorded: inhibited the FasL-induced FRET phenomenon
death rate of Jurkat cells treated with Fas-ligand (Trypan Blue) [2]: 12%
sub-G1 population of Jurkat cells treated with Fas-ligand (Propidium Iodide, flow cytometry) [2]: 8%
